# Experimental data taken from publication PMC8789516, “Polyphenol oxidase and enzymatic browning in apricot (Prunus armeniaca L.): Effect on phenolic composition and deduction of main substrates” (Current Research in Food Science, 2022).
# B1: L-PaPPO (recombinant latent apricot polyphenol oxidase) (Prunus armeniaca; A376C/R416N/S149R/V417C) (protein)
# chain: DPIAPPDLTTCKPAEITPGGSETVPCCPPVTTKIKTFKPDLSIPLRTRPAAHQVTDEYLAKFKKAQAAMRALPDDDPRSMVQQAKVHCAYCNGAYPQVGFTDNDIQVHFSWLFFPFHRMYLYFYERILGKLIDDPTFALPYWNWDSPVGFPIPDIYTDTSSPLYDQYRNADHQPPVLVDLSYGGKDDDVDEQTRIDENLAIMYRQMVSGAKTPDLFFGHAYRAGNLNTGKYPGTIENMPHNNIHIWVGDPSQTHQEDMGNFYSAGRDPLFYAHHCNVDRMWNIWKTLGGKRKDITDTDWLDAEFLFYDENAELVNCKVRDSLEPEKQLRYNYEPVSLPWLFTKPTARKTKNKTKAKVAATQLTSKFPATLVEVTTVEVARPKPRKRSKKEKVDEEELLIIKDIEFEGTEAVKFDVFINDDAESLSRRDKSEFAGSFVHVPQGKTTKAKTKTNLKLGITDLLEDLGAEDDSSVLVTLVPRVSNSPITIGGFKIEYSS
# notes: latent form Asp102-Ser597 (active plus C-terminal domain), signal peptide removed; Gly-Pro-Met left after HRV 3C cleavage of GST; E. coli SHuffle T7; intron removed
# How the values were obtained:
# Details in all cases: pH 7.0, 50 mM Tris-HCl, 25 °C, 2 mM SDS as activator of the latent enzyme
# [1] = molecular target: T1, L-PaPPO (recombinant latent apricot polyphenol oxidase) (Prunus armeniaca, UniProt O81103, S149R/A376C/R416N/V417C)
# T1 construct: gene PPO
# purified protein [2] = substrate: NCCc1ccc(O)cc1; test: purified protein; assay type: biochemical, Prunus armeniaca
# purified protein [3] = substrate: NCCc1ccc(O)c(O)c1; test: purified protein; assay type: biochemical, Prunus armeniaca
Molecule,Km [1] [µM],Km (purified protein [2]) [µM],kcat (purified protein [2]) [s⁻¹],kcat/Km (purified protein [2]) [M⁻¹ s⁻¹],Km (purified protein [3]) [µM],kcat (purified protein [3]) [s⁻¹],kcat/Km (purified protein [3]) [M⁻¹ s⁻¹]
O=C(/C=C/c1ccc(O)c(O)c1)O[C@@H]1C[C@](O)(C(=O)O)C[C@@H](O)[C@H]1O [Chlorogenic acid],1520 ± 100,,,,,,
O=C(/C=C/c1ccc(O)c(O)c1)O[C@@H]1C[C@@](O)(C(=O)O)C[C@@H](O)[C@@H]1O [Neochlorogenic acid],1470 ± 290,,,,,,
B1,,4480 ± 360,1.42 ± 0.13,318 ± 29,1610 ± 160,162 ± 3.3,99800 ± 2900
